For 1 substance, decrease of binding against unPEGylated CA1.CD2 results are on record in patent US20240082434A1.

The target of the assay is CA1.CD2 PEGylated with P40 (rat). Nature of the assay: Western blot; PEGylated (P40) against unmodified CA1.CD2. Background: Immunoblotting shows a protein as a band on a membrane.

For antibody OX34, the decrease of binding against unPEGylated CA1.CD2 is 50%.
